Reference: the DeepSol protein solubility set

Assay: soluble on expression in E. coli; label from the status in PepcDB or PDB records

| Sequence | soluble on expression in E. coli |
| --- | --- |
| MSLRFEGIYTPAVTPHTPDGDIDWAVFSEVLESLIEANVHGIIIGGSTGEYYAQTAEERLKLAAHAKDVMGNRVQLIIGTGAIRTEDAVLFAKDAKALKADAILVTTPPYALPTDQENAIHALTIDRAANMPIMLYNYPGRMGVQMNEDYLARVGKSKNVIAIKESSGEMGRVHLLAREFPHIALSCGWDDQALEFFAWGARSWVCAGSNFLPREHVALYEACVIEKNFDKGRQIMSAMMPLMHALDGGKFVQCIKFGCELNGLKVGDVRAPLRPLNAEDKRSLQTVIANVKEGHHHHHH | not soluble |
| MSLRHLLRSLIGKTLAFFVEREDDNLTRVREHLMDLLDARPSPVRAQNLRSARQLLHKQADVFNRAFQAALQTSMDEEMRAVLPEAPASAVANDTSADPLDGMTLSLIDVCEVERILLVDRVAQRFTAHYDASVSALTQRLGVLLGRDVAALSSNPFRPEVFVRAFLLAWENSGLDKQATEDLMLSLDPLHSIDLTPLYADLNAMLTHAGIAAQPARRVIKSEGAGSSYLPLSPASAHAHLQGGEMRSGLGDLEPERARSAWDALAPAGRSIASHARQFLQRLGLASSSGQNDSGAGEGADWTPADGHETRTYLASADPEFMGYLGDLQAGAQAESAERILPGQHPGDRNVLRQMRDRDEVRRAPELDRGTVDALAEVFDFVFADQAIPVQMKFVIGRLQIPVLKAAMIDRDFFLSADHPARRLVDTLAQASIAWAPEKGESDPLYVRIENTVQRVLTEFEDDLALFSELLAEFTEFLFETEQQAQGRIEPAVDHERVGESFEQALAHADEVIHARIAALPSELPLAPFLAPFLTTQWREVLARAWLNVQASAAPWDSAVTSMDQLIWSTQPKTRIEERRQLVALLPELVRRLNAGLDAIEWVGEPRATFTRRLIATHMMAIRMTQAASVDSMSAALEANAGKEAMNELEQRRSGQLAGSVDDFDAMAQSFTRGLWFDFLLDEHTQHRCLLSWVSPMRTRLLFTNRDGFDAFVRSEREVAALLRHGRLHVIDQQPIVSRALDRIMSEGERKQEGHHHHHH | soluble |
| MSLRIESGVCYVINEFCALGNTYMPIDKLVKNCINVLNVKKEEVEKAIYECTLSQKIKVEIINGENCVFTMEYYYCEIGITRKIITLAYDSYKSLEIDVDQKIIQFENENKIKFAPSQVEAIEGAFSNGIEVITGGPGTGKTTIIRCITYIFEELNMKVFMAAPTGRAAKRMSESTGREAKTIHRMLELGYEDEVFFDNNNYSTLQCDVVIIDEASMIDVVLMNSLLKSIGMGTRVIIVGDVDQLPSVGPGNVLRDIIESKCVKVIRLNNIFRQAKESMITVNAHKINSGEMPLLNKKDKDFYFIREDNAEAITNTIISLVYKRLPLFNKSWKAARDIQVLAPMKKGIAGVANLNVSLQSIINPPHKSKDEIKFRDNIFRVGDKVMQIKNNYMLKEGHHHHHH | not soluble |
| MSLRIPDKNNLMIYELLLRDFTATGDLNGAMEKIGYLKSLGFNAVELMPVQEFDGNDSWGYNPCFHFALDKAYGTDHMYKAFIDKCHEVGMAVLFDVVYNHASGSHPFARLYWDTKNNRTAADNPWFNVKEPHPYGVFHDFNHDSPLVRAFVKRNLKFLLEEYRIDGFRFDMTKGFTQNSSTEATAGSYDASRIAILKDYNETVREVNPEAVVILEHFCDEKEESELAEEGMQLWRNLNNAYCQSAMGYPSNSDFTPLVTFGTTMPYGGWVGFMESHDEERTAFKQIAYGEGPLKSDINVRMKQLAANASFFFTAPGPKMVWQFGEMGYDVSIEEGGRTGRKPLHWEYLDNEARKGLCNTYAKLLKLRREHSELFNPGSTFSWLVKTANWTGGRFLTLAATNGKRLVVVGNFTAKPIEAITSFPVTGVWTNYLDGTKLHVTSIPTGLMIPAHECRVYINEGHHHHHH | not soluble |
| MSLRKGSMRITPLGGLGEIGRNMNVIEYNGHLLLIDCGVLFPEEEQPGVDLILPDFSYIKNRLDKVDALVLTHGHEDHIGGVPYLLKLRPDIPLIGSKLTLAFVDAKCKEHHQNPTKVEVAGREKLKVGPFDLEFVNVTHSIPDALAVYVKTPAGSLIDTGDIKLDQLPLDHRITDLVEFGKIGEKGVDLLMMDSTNAEVPGFVKPETSIGPALDQAFAQATRKIIVASFSSHVHRVQQVVDAAHKYGRKVVFVGRSMVRNMSIAADLGYLHIPEGTVVDLKQANDIQDDKLVFMCTGSQGEPMAALGRIADGNHRDIHINEFDTVILASSLIPGNEHGVYKVINKLVQLGAKVVNRDNAAVHVSGHCNEGELLYMYNIVKPKCAMPIHGENRHLVANGLIAVKTGVDPQNVVLAEDGDVVDLYHGRAAVVGSVPCGYVYVDGDSVGELTDDELEKRRILGTEGFVSAFVVVDTDNHEVVTGPKIYLNAVAEDESEFDKVRHQIVEQLNDQMMQGTRDTYKLQQTMRRTLGSWVARQLHRKPMIVPVVADIAQDVETVETKEGHHHHHH | soluble |
| MSLRLKTILLTTMATGSFLCEPVAAMCIEPPATPDMGWFLKKKKKSNPQDSIKVKNEYEKLTGSDSVVRRGMFNVYQKKNDYYFEIPSTLLERDMLVVNKLQRVPAELNEAGVNRGTNYENQMIRFELDKSANKLLIRQSRPLPISPSEDAISQSVKDNYISPLIAGFKVEAYNNDSTSILIKVNDIYDGTETSINNVFTNINLGTSAIKNLSRILSIKSFDNNVVATSELTTRVTEGTTTIYVTVEVSSSILLLPEVPMTGRLDNPRVGYFTNPLTNFSDGQQRVNKKQFITRWRLEPRPEDRAAYLRGELVEPRKPIVFYIENSTPYRWRKYIKQGIEDWQVAFERAGFKNAIIAKDITEDMEVDMDDVNYSVLTYAASTKANAMGPSILDPRSGEILEADIMWWHNVLSMLQEWITVQTGVVRPEAREGHHHHHH | not soluble |
| MSLRLLRVVGCPEWVIDHSLAVRKKALELSRELPVDMKLVEEGAILHDIGRCRTSGVEHAVEGARILEGFGYPPEVVRIVERHVGAGIPPEEAKALGLPPGDYMPRTLEEKIVAHADNLINGSDEVDIDFVIKKWSDRLGADHPSIESLKRLHEELLGHL | not soluble |
| MSLRPEFQGLQGGLFSSVKKADVGTAVLDLMANGVDMLCWADPFFPDPVLPEHISQAVIKSMENGSASHYTMPIGNPELKEKIALKLQRYNNLTVEAQRNILITPGSDSGLLFAMMPFINNDDEVLIHSPSYPSNFLNVELLGGKPISVELKAENNFQIDIKDFENKITEKTKMVILTNPNNPTGTVLRRESLQAIADFIIAHDLILVVDQAFEDAIFDEIEFISIASLPGMWERTVSVFSFSKGMGLSGFRVGYLVADAQIVDVLFGCTVNVVGATNTSSQAGMIAALDEPSFMGEYTQIFERRRKVVFEMMNAIPGVCMVMPESGFLSWIDISKLGTSTFICDYLLQHAHVMVNSGVPYGQGGEGYIRLVHGCYKDDEKLYAVLTRIQQALMQLAKEKGICHGEGHHHHHH | soluble |
| MSLRPQAPMTQTPMAQASTSTTTPQKIVLYMATTTSVKDTGLLDVLIPDFEKWAASRGYNIEVRYTAVGTGQALAMAARGDVDVVIVHAPSLEKQYLENGTLKCRDVIAYNFFIIVGPRDDPAGAKSLTATEAFRRIAEAKAPFVSRGDRSGTHLMELSLWRRAIGREPDPKNDTWYISAGAGMGQTLLLANEKSAYTLSDTGTWLRYRDKLPQLDVIVQAAPDLINIYSFSIVKLSNATRLMAQYMKTRGLEVIGNLTINGVSLFTPINKADPKAMEWIKTAIFGPSCVEREGHHHHHH | soluble |
| MSLRQRLTRRDPVSRLPNREQFQSDLYDLADENPGERRVLVLVDAVDMTVAHELTLAMGLAPFETIVRFLAQQLLAYLGRHVRVYHVSVKRFGFLLPAAPGIERFLESLVRRLRRQPPGLELPMIPGVCAGTVEFSTDRDAVPDVLRKAMFALELATLNRSTWAPYDVVRDQAYRRAFNLASDISEALDSGQIYLMFQPRFALPDGAQVSAEALIRWDHPWLGPISPAEFIPVMERNALIHRVTHWVINAVLGKLQAWSDGEVQRLSINLSPQDFEDQDIADVLKAACRRHGIEPHRLEVEITEGAWLRSNPRVLDQLSKIRALGMDVAIDDFGTGYSNFAYLHQIPANVVKLDKSMVTDLESSAQHQKITRSVIALARELGYRTVAEGIESFKCLQMLRTFGCDEAQGYFLARPMVQEKFLARSAAQRFPLQEGHHHHHH | soluble |
